Measured values taken from patent US20110300138A1 (published 2011).
Where two headings read alike, the source gives them in different places.

Assays:
Assay in all cases: cell-based or functional assay
[1] = biological target: TSHR with Phe134 mutated to Ala, expressed in CHO cells (human) (UniProt P16473)
[2] = biological target: wild type TSHR expressed in CHO cells (human) (UniProt P16473)
[3] = biological target: TSHR with Phe130 mutated to Ala, expressed in CHO cells (human) (UniProt P16473)
[4] = biological target: wild type TSHR expressed in CHO cells (human) (UniProt P16473); remark: listed apart in the source
[5] = biological target: TSHR with Glu61 mutated to Ala, expressed in CHO cells (human) (UniProt P16473)
[6] = biological target: wild type TSHR (human TSH receptor) expressed in CHO cells (human) (UniProt P16473)
[7] = biological target: TSHR with Glu178 mutated to Ala expressed in CHO cells (human) (UniProt P16473)
[8] = biological target: TSHR with Ile60 mutated to Ala, expressed in CHO cells (human) (UniProt P16473)
[9] = biological target: TSHR with Ser281 mutated to Ala, expressed in CHO cells (human) (UniProt P16473)

Substance: 5B3 (human monoclonal antibody to GAD, negative control for K1-70)
- % inhibition of TSH stimulation; 5B3 10 µg/mL [1]: 9%
- % inhibition of TSH stimulation; 5B3 100 µg/mL [1]: 0%
- Cyclic AMP produced; 5B3 10 µg/mL + TSH 3 ng/mL [1]: 101 pmol/mL
- Cyclic AMP produced; 5B3 100 µg/mL + TSH 3 ng/mL [1]: 116 pmol/mL
- Mutated/wild type (%) of cyclic AMP produced; 5B3 10 µg/mL + TSH 3 ng/mL [1]: 77%
- Mutated/wild type (%) of cyclic AMP produced; 5B3 100 µg/mL + TSH 3 ng/mL [1]: 103%
- % inhibition of TSH stimulation; 5B3 10 µg/mL [2]: 0%
- Cyclic AMP produced; 5B3 10 µg/mL + TSH 3 ng/mL [2]: 131 pmol/mL
- Cyclic AMP produced; 5B3 100 µg/mL + TSH 3 ng/mL [2]: 112 pmol/mL
- % inhibition of TSH stimulation; 5B3 10 µg/mL [3]: 8%
- % inhibition of TSH stimulation; 5B3 100 µg/mL [3]: 6%
- Cyclic AMP produced; 5B3 10 µg/mL + TSH 3 ng/mL [3]: 111 pmol/mL
- Cyclic AMP produced; 5B3 100 µg/mL + TSH 3 ng/mL [3]: 114 pmol/mL
- Mutated/wild type (%) of cyclic AMP produced; 5B3 10 µg/mL + TSH 3 ng/mL [3]: 142%
- Mutated/wild type (%) of cyclic AMP produced; 5B3 100 µg/mL + TSH 3 ng/mL [3]: 131%
- % inhibition of TSH stimulation; 5B3 10 µg/mL [4]: 2%
- % inhibition of TSH stimulation; 5B3 100 µg/mL [4]: 0%
- Cyclic AMP produced; 5B3 10 µg/mL + TSH 3 ng/mL [4]: 78.2 pmol/mL
- Cyclic AMP produced; 5B3 100 µg/mL + TSH 3 ng/mL [4]: 86.9 pmol/mL
- % inhibition of TSH stimulation; 5B3 10 µg/mL [5]: 0%
- % inhibition of TSH stimulation; 5B3 100 µg/mL [5]: 9%
- Mutated/wild type (%) of cyclic AMP produced; 5B3 10 µg/mL + TSH 3 ng/mL [5]: 68%
- Mutated/wild type (%) of cyclic AMP produced; 5B3 100 µg/mL + TSH 3 ng/mL [5]: 55%
- % inhibition of TSH stimulation; 5B3 10 µg/mL [6]: 1%
- % inhibition of TSH stimulation; 5B3 10 µg/mL; Experiment 1 [6]: 0%
- % inhibition of TSH stimulation; 5B3 10 µg/mL; Experiment 2 [6]: 0%
- % inhibition of TSH stimulation; 5B3 100 µg/mL [6]: 0%
- % inhibition of TSH stimulation; 5B3 100 µg/mL; Experiment 1 [6]: 2%
- % inhibition of TSH stimulation; 5B3 100 µg/mL; Experiment 2 [6]: 0%
- % inhibition of TSH stimulation; 5B3 10 µg/mL; Exp 1 [7]: 0%
- % inhibition of TSH stimulation; 5B3 10 µg/mL; Exp 2 [7]: 0%
- % inhibition of TSH stimulation; 5B3 100 µg/mL; Exp 1 [7]: 0%
- % inhibition of TSH stimulation; 5B3 100 µg/mL; Exp 2 [7]: 3%
- Cyclic AMP produced; 5B3 10 µg/mL + TSH 3 ng/mL; Exp 1 [7]: 57.6 pmol/mL
- Cyclic AMP produced; 5B3 10 µg/mL + TSH 3 ng/mL; Exp 2 [7]: 55 pmol/mL
- Cyclic AMP produced; 5B3 100 µg/mL + TSH 3 ng/mL; Exp 1 [7]: 57 pmol/mL
- Cyclic AMP produced; 5B3 100 µg/mL + TSH 3 ng/mL; Exp 2 [7]: 45 pmol/mL
- Mutated/wild type (%) of cyclic AMP produced; 5B3 10 µg/mL + TSH 3 ng/mL; Exp 1 [7]: 88%
- Mutated/wild type (%) of cyclic AMP produced; 5B3 10 µg/mL + TSH 3 ng/mL; Exp 2 [7]: 55%
- Mutated/wild type (%) of cyclic AMP produced; 5B3 100 µg/mL + TSH 3 ng/mL; Exp 1 [7]: 87%
- Mutated/wild type (%) of cyclic AMP produced; 5B3 100 µg/mL + TSH 3 ng/mL; Exp 2 [7]: 46%
- % inhibition of TSH stimulation; 5B3 10 µg/mL; Experiment 1 [8]: 0%
- % inhibition of TSH stimulation; 5B3 10 µg/mL; Experiment 2 [8]: 17%
- % inhibition of TSH stimulation; 5B3 100 µg/mL; Experiment 1 [8]: 14%
- % inhibition of TSH stimulation; 5B3 100 µg/mL; Experiment 2 [8]: 0%
- Mutated/wild type (%) of cyclic AMP produced; 5B3 10 µg/mL + TSH 3 ng/mL; Experiment 1 [8]: 58%
- Mutated/wild type (%) of cyclic AMP produced; 5B3 10 µg/mL + TSH 3 ng/mL; Experiment 2 [8]: 53%
- Mutated/wild type (%) of cyclic AMP produced; 5B3 100 µg/mL + TSH 3 ng/mL; Experiment 1 [8]: 50%
- Mutated/wild type (%) of cyclic AMP produced; 5B3 100 µg/mL + TSH 3 ng/mL; Experiment 2 [8]: 62%
- % inhibition of TSH stimulation; 5B3 10 µg/mL; Experiment 1 [9]: 19%
- % inhibition of TSH stimulation; 5B3 10 µg/mL; Experiment 2 [9]: 4%
- % inhibition of TSH stimulation; 5B3 100 µg/mL; Experiment 1 [9]: 11%
- % inhibition of TSH stimulation; 5B3 100 µg/mL; Experiment 2 [9]: 0%
- Mutated/wild type (%) of cyclic AMP produced; test sample 5B3 10 µg/mL + TSH (3 ng/mL); Experiment 1 [9]: 67%
